Test results as given in patent US20250327097A1, “ORGANISMS PRODUCING LESS CROTONIC ACID” (Global Bioenergies, priority 2021, published 2025).
Changes are numbered by the printed parent chain. Names may count otherwise.

B1: I283T-N285P-N287T-L289A-Q290E-S322T-N388M-K394R-C430A-L432F-L434W-S436N-G462P-A463P (protein)
chain: MFLKSLREQINLLKRQGDLRIINRPVDSYLEAAAIIRRSTETKAPVPLMTNIKGYPGCSIVGGLAALSSNPEYPLSRVAMSLGLSTTASAQSIVQYLIDGLKKTPYLPVEIDSNSAPCKQNILRGEDASLAHFPIPQVHQHDGNRYVNTWGVFIVESPDGQWCNWSIQRVQYLNDRQMIALVFPSQHISDIWEEWVKIGKPMPYALVQGCEPIVPYIAGLPLLERNVNEAEYIGALYGKGIEVVKCETHDLRVPASSEVVIEGYFAITREGVEGPFGEFAGYTPPETSAEPILSITAISWQDDPIWPVVAEGKPVDEYHTCTGIGDAAAIQNVLLTANLPVSFVWVPLYSACHLMIVSINRHWRQTHPDLTSEQLTKKVGDVIHQTRMSIKLPRIVVLDDDVDPADTESLLWALATRIHPERKRYFYESAIFPWLNCYSEEERHNRKGKRVIIDALLPENHPPISSFDYAYPDDIKQRVLMHWETDFSHD
B2: I283T-P284D-N285M-E286D-N287T-S322T-N388M-K394R-C430A-L432F-L434W-S436N-G462P-A463P (protein)
chain: B1 chain with P284D, P285M, E286D, A289L, E290Q
B3: I283T-P284D-N287P-S322T-N388M-C430N-L432F-L434W-S436N-H461V-dG462 (protein)
chain: B1 chain with P284D, P285N, T287P, A289L, E290Q, R394K, A430N, H461V, P462G, P463A
B4: I283Q-P284D-N285M-N287T-S322T-N388M-K394R-C430A-L432F-L434W-S436N-G462P-A463P (protein)
chain: B1 chain with T283Q, P284D, P285M, A289L, E290Q
B5: I283T-P284D-N285M-E286A-N287T-S322T-N388M-K394R-C430A-L432F-L434W-S436N-G462P-A463P (protein)
chain: B1 chain with P284D, P285M, E286A, A289L, E290Q
B6: I283T-P284D-N285V-N287T-S322T-N388M-K394R-C430A-L432F-L434W-S436N-G462P-A463P (protein)
chain: B1 chain with P284D, P285V, A289L, E290Q
B7: P25L-I283T-P284D-N287P-S322T-N388M-C430N-L432F-L434W-S436N-dG462 (protein)
chain: B1 chain with P25L, P284D, P285N, T287P, A289L, E290Q, R394K, A430N, P462G, P463A
B8: I283T-P284D-N285M-E286N-N287T-S322T-N388M-K394R-C430A-L432F-L434W-S436N-G462P-A463P (protein)
chain: B1 chain with P284D, P285M, E286N, A289L, E290Q
B9: I283H-P284D-N285M-N287T-S322T-N388M-K394R-C430A-L432F-L434W-S436N-G462P-A463P (protein)
chain: B1 chain with T283H, P284D, P285M, A289L, E290Q
B10: I283T-P284D-N285M-N287T-L289R-S322T-N388M-K394R-C430A-L432F-L434W-S436N-G462P-A463P (protein)
chain: B1 chain with P284D, P285M, A289R, E290Q
B11: I283T-P284D-N285M-N287T-L289Q-S322T-N388M-K394R-C430A-L432F-L434W-S436N-G462P-A463P (protein)
chain: B1 chain with P284D, P285M, A289Q, E290Q
B12: I283T-P284D-N287P-S322T-N388M-C430N-L432F-L434W-S436N-dG462-A463F (protein)
chain: B1 chain with P284D, P285N, T287P, A289L, E290Q, R394K, A430N, P462G, P463F
B13: I283T-P284D-N287P-S322T-N388M-C430N-L432F-L434W-S436N-dG462-A463I (protein)
chain: B1 chain with P284D, P285N, T287P, A289L, E290Q, R394K, A430N, P462G, P463I
B14: I283T-P284D-N285T-N287T-S322T-N388M-K394R-C430A-L432F-L434W-S436N-G462P-A463P (protein)
chain: B1 chain with P284D, P285T, A289L, E290Q
B15: I283T-P284D-N287P-S322T-N388M-C430N-L432F-L434W-S436N-dG462-S465V (protein)
chain: B1 chain with P284D, P285N, T287P, A289L, E290Q, R394K, A430N, P462G, P463A, S465V
B16: I283T-P284D-N287P-S322T-N388M-R422L-C430N-L432F-L434W-S436N-dG462 (protein)
chain: B1 chain with P284D, P285N, T287P, A289L, E290Q, R394K, R422L, A430N, P462G, P463A
B17: I283T-P284D-N287P-S322T-N388M-R422G-C430N-L432F-L434W-S436N-dG462 (protein)
chain: B1 chain with P284D, P285N, T287P, A289L, E290Q, R394K, R422G, A430N, P462G, P463A
B18: I283T-P284D-N287P-S322T-H384A-N388M-C430N-L432F-L434W-S436N-dG462 (protein)
chain: B1 chain with P284D, P285N, T287P, A289L, E290Q, H384A, R394K, A430N, P462G, P463A
B19: N388M-K394R-C430N-L432F-L434W-S436N-H444R (protein)
chain: B1 chain with T283I, P285N, T287N, A289L, E290Q, T322S, A430N, H444R, P462G, P463A
B20: I283T-P284D-N285M-N287T-S288T-S322T-N388M-K394R-C430A-L432F-L434W-S436N-G462P-A463P (protein)
chain: B1 chain with P284D, P285M, S288T, A289L, E290Q
B21: I283T-N285P-N287T-Q290E-S322T-Q365M-N388M-K394R-C430A-L432F-L434W-S436N-G462P-A463P (protein)
chain: B1 chain with A289L, Q365M
B22: I283T-P284D-N285M-N287T-L289M-S322T-N388M-K394R-C430A-L432F-L434W-S436N-G462P-A463P (protein)
chain: B1 chain with P284D, P285M, A289M, E290Q
B23: I283T-P284D-N287P-S322T-N388M-C430N-L432F-L434W-S436N-dG462-A463T (protein)
chain: B1 chain with P284D, P285N, T287P, A289L, E290Q, R394K, A430N, P462G, P463T
B24: I283T-P284D-N285M-E286H-N287T-S322T-N388M-K394R-C430A-L432F-L434W-S436N-G462P-A463P (protein)
chain: B1 chain with P284D, P285M, E286H, A289L, E290Q
B25: I283T-P284D-N285H-N287T-S322T-N388M-K394R-C430A-L432F-L434W-S436N-G462P-A463P (protein)
chain: B1 chain with P284D, P285H, A289L, E290Q
B26: N388M-K394R-C430N-L432F-L434W-S436N-H444L (protein)
chain: B1 chain with T283I, P285N, T287N, A289L, E290Q, T322S, A430N, H444L, P462G, P463A
B27: I283T-P284D-N285L-N287T-S322T-N388M-K394R-C430A-L432F-L434W-S436N-G462P-A463P (protein)
chain: B1 chain with P284D, P285L, A289L, E290Q
B28: N388M-K394R-C430N-L432F-L434W-S436N-H444N (protein)
chain: B1 chain with T283I, P285N, T287N, A289L, E290Q, T322S, A430N, H444N, P462G, P463A
B29: I283T-N285P-N287T-Q290E-S322T-Q365S-N388M-K394R-C430A-L432F-L434W-S436N-G462P-A463P (protein)
chain: B1 chain with A289L, Q365S
B30: I283T-P284D-N285S-N287T-S322T-N388M-K394R-C430A-L432F-L434W-S436N-G462P-A463P (protein)
chain: B1 chain with P284D, P285S, A289L, E290Q
B31: I283T-P284D-N285M-N287T-S322T-N388M-K394R-C430T-L432F-L434W-S436N-G462P-A463P (protein)
chain: B1 chain with P284D, P285M, A289L, E290Q, A430T
B32: I283T-P284D-N285M-E286G-N287T-S322T-N388M-K394R-C430A-L432F-L434W-S436N-G462P-A463P (protein)
chain: B1 chain with P284D, P285M, E286G, A289L, E290Q
B33: I283L-N285P-N287T-Q290E-S322T-N388M-K394R-C430A-L432F-L434W-S436N (protein)
chain: B1 chain with T283L, A289L, P462G, P463A
B34: I283T-P284D-N287P-S322T-P368S-N388M-E421V-C430N-L432F-L434W-S436N-dG462 (protein)
chain: MFLKSLREQINLLKRQGDLRIINRPVDSYLEAAAIIRRSTETKAPVPLMTNIKGYPGCSIVGGLAALSSNPEYPLSRVAMSLGLSTTASAQSIVQYLIDGLKKTPYLPVEIDSNSAPCKQNILRGEDASLAHFPIPQVHQHDGNRYVNTWGVFIVESPDGQWCNWSIQRVQYLNDRQMIALVFPSQHISDIWEEWVKIGKPMPYALVQGCEPIVPYIAGLPLLERNVNEAEYIGALYGKGIEVVKCETHDLRVPASSEVVIEGYFAITREGVEGPFGEFAGYTDNEPSLQPILSITAISWQDDPIWPVVAEGKPVDEYHTCTGIGDAAAIQNVLLTANLPVSFVWVPLYSACHLMIVSINRHWRQTHSDLTSEQLTKKVGDVIHQTRMSIKLPKIVVLDDDVDPADTESLLWALATRIHPVRKRYFYESNIFPWLNCYSEEERHNRKGKRVIIDALLPENHGAISSFDYAYPDDIKQRVLMHWETDFSHD

Test system: 3-methylcrotonic acid
Format: biochemical, Yersinia frederiksenii
Design: key: “+” representing a low increase in activity; “++++” representing a high increase in activity

Question: For B1, which “Activity relative to WT” value is on record?
Answer: ++++

Question: How did the “Activity relative to WT” value turn out when B2 was run?
Answer: ++++

Question: How did the “Activity relative to WT” value turn out when B3 was run?
Answer: ++++

Question: For B4, which “Activity relative to WT” value is on record?
Answer: ++++

Question: How did the “Activity relative to WT” value turn out when B5 was run?
Answer: ++++

Question: For B6, which “Activity relative to WT” value is on record?
Answer: ++++

Question: How did the “Activity relative to WT” value turn out when B7 was run?
Answer: ++++

Question: With B8 as the molecule, how does the “Activity relative to WT” value read?
Answer: ++++

Question: With B9 as the molecule, how does the “Activity relative to WT” value read?
Answer: ++++

Question: Which “Activity relative to WT” value does the source give for B10 here?
Answer: ++++

Question: With B11 as the molecule, how does the “Activity relative to WT” value read?
Answer: ++++

Question: For B12, which “Activity relative to WT” value is on record?
Answer: ++++

Question: Which “Activity relative to WT” value does the source give for B13 here?
Answer: ++++

Question: Which “Activity relative to WT” value does the source give for B14 here?
Answer: ++++

Question: For B15, which “Activity relative to WT” value is on record?
Answer: ++++

Question: How did the “Activity relative to WT” value turn out when B16 was run?
Answer: ++++

Question: How did the “Activity relative to WT” value turn out when B17 was run?
Answer: ++++

Question: Which “Activity relative to WT” value does the source give for B18 here?
Answer: ++++

Question: How did the “Activity relative to WT” value turn out when B19 was run?
Answer: +

Question: Which “Activity relative to WT” value does the source give for B20 here?
Answer: ++++

Question: For B21, which “Activity relative to WT” value is on record?
Answer: ++++

Question: For B22, which “Activity relative to WT” value is on record?
Answer: ++++

Question: How did the “Activity relative to WT” value turn out when B23 was run?
Answer: ++++

Question: Which “Activity relative to WT” value does the source give for B24 here?
Answer: ++++

Question: With B25 as the molecule, how does the “Activity relative to WT” value read?
Answer: ++++

Question: How did the “Activity relative to WT” value turn out when B26 was run?
Answer: +

Question: Which “Activity relative to WT” value does the source give for B27 here?
Answer: ++++

Question: B28 was tested. Which “Activity relative to WT” value did it give?
Answer: +

Question: B29 was tested. Which “Activity relative to WT” value did it give?
Answer: ++++

Question: For B30, which “Activity relative to WT” value is on record?
Answer: ++++

Question: Which “Activity relative to WT” value does the source give for B31 here?
Answer: ++++

Question: For B32, which “Activity relative to WT” value is on record?
Answer: ++++

Question: How did the “Activity relative to WT” value turn out when B33 was run?
Answer: ++++

Question: With B34 as the molecule, how does the “Activity relative to WT” value read?
Answer: ++++
